Data reported in patent publication US20230374132A1 (Innovent, published 2023).

What was measured:
[1] = target: T1, human CD3 E&D complex protein (Sino Biological Inc., CT026H0323H) (human, UniProt P07766 23-126; P04234 22-105); experiment: BLI, antibody on sensor
T1 construct: bought heterodimer; also called human CD3 protein (CT026H0323H)
Procedure: (§1) 100 μl SD buffer, various antibodies, human CD3 E&D complex protein (Sino Biological Inc., CT026H0323H), and cynomolgus monkey CD3 E&D complex protein (Sino Biological Inc., CT032-00323H) were added into 96-well black polystyrene semi-quantitative micro-well plate (Greiner, 675076) respectively. Fortebio Octet Red 96 was used for detection, and the sensor position was selected according to the sample position. The setting parameters of the instrument are as follows: operation steps: Baseline, Loading-1 nm, Baseline, Association and Dissociation; the operation time of each step depends on the speed of sample association and dissociation. The rotational speed is 1000 rpm and the temperature is 30° C. ForteBio Octet analysis software was used to analyze KD value.

[2] = target: T2, cynomolgus monkey CD3 E&D complex protein (Sino Biological Inc., CT032-00323H) (cynomolgus monkey, UniProt Q95LI5 22-117; Q95LI8 22-105); experiment: BLI, antibody on sensor
T2 construct: bought heterodimer
Procedure: as §1

T2 sequence (Q95LI5 22-117, chain 1 of 2): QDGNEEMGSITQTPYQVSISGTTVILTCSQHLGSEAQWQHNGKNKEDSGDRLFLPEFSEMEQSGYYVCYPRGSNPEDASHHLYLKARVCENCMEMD
T2 sequence (Q95LI8 22-105, chain 2 of 2): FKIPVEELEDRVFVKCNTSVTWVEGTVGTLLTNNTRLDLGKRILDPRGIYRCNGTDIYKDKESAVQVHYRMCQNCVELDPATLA
T1 sequence (P07766 23-126, chain 1 of 2): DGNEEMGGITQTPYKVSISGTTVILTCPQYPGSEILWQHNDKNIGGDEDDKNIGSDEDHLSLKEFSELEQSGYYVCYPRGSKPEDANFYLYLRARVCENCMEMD
T1 sequence (P04234 22-105, chain 2 of 2): as the sequence (Q95LI8 22-105, chain 2 of 2) above, with V5I, K15N, V20I, T32S, N33D, N34I, A64T, N74S, L83V counted along it

Row | Binder | Kd [1] | koff [1] | kon [1] | Kd [2] | koff [2] | kon [2] | binding result [1] | binding result [2]
1 | hzsp34.14 (antibody, human IgG1, lambda, L234A L235A, V domains shown, IgG1 L234A L235A, lambda) VH: EVQLVESGGGLVQPGGSLKLSCAASGFTFNTYAMNWVRQASGKGLEWVGRIRSKYNNYATYYADSVKDRFTISRDDSKSTLYLQMNSLKTEDTAVYYCARHGNFGQSYVSWFAYWGQGTTVTVSS VL: QAVVTQEPSLTVSPGGTVTLTCRSSTGAVTTSNYANWVQQKPGQAPRTLIGGTNKRAPGVPARFSGSLLGGKAALTLLGAQPEDEAEYYCALWYSNLWVFGQGTKLTVLG | 2.41 nM | 0.00159 s⁻¹ | 661000 M⁻¹ s⁻¹ | 0.195 nM | 9.49e-05 s⁻¹ | 488000 M⁻¹ s⁻¹ | – | –
2 | hzsp34.23 (antibody, human IgG1, lambda, L234A L235A, V domains shown, IgG1 L234A L235A, lambda) VH: EVQLVESGGGLVQPGGSLKLSCAASGFTFNTYAMNWVRQASGKGLEWVGRIRSKYNNYATYYADSVKDRFTISRDDSKSTLYLQMNSLKTEDTAVYYCARHGNFGNSYVSWFAYWGQGTTVTVSS VL: QAVVTQEPSLTVSPGGTVTLTCRSSTGAVTTSNYANWVQQKPGQAPRGLIGGTNKRAPGVPARFSGSLLGDKAALTLLGAQPEDEAEYYCALWYSNLWVFGQGTKLTVLG | 0.554 nM | 0.00198 s⁻¹ | 3.57e+06 M⁻¹ s⁻¹ | 0.605 nM | 0.000791 s⁻¹ | 1.31e+06 M⁻¹ s⁻¹ | – | –
3 | hzsp34.32 (antibody, human IgG1, kappa, L234A L235A, V domains shown, IgG1 L234A L235A, kappa) VH: EVQLVESGGGLVQPGGSLKLSCAASGFTFNTYAMNWVRQASGKGLEWVGRIRSKYNNYATYYADSVKDRFTISRDDSKNTLYLQMNSLKTEDTAVYYCARHGNFGNSYVSWFAYWGQGTTVTVSS VL: EIVMTQSPATLSVSPGERATLSCRSSTGAVTTSNYANWVQQKPGQAPRLLIGGTNKRAPGVPARFSGSGSGTEFTLTISSLQSEDFAVYYCALWYSNLWVFGQGTKLTVLR | – | – | – | – | – | – | no binding | no binding
4 | hzsp34.17 (antibody, human IgG1, lambda, L234A L235A, V domains shown, IgG1 L234A L235A, lambda) VH: EVQLVESGGGLVQPGGSLKLSCAASGFTFNTYAMNWVRQASGKGLEWVGRIRSKYNNYATYYADSVKDRFTISRDDSKNTLYLQMNSLKTEDTAVYYCARHGNFGNSYVSWFAYWGQGTTVTVSS VL: QAVVTQEPSLTVSPGGTVTLTCRSSTGAVTTSNYANWVQQKPGQAPRGLIGGTNKRAPGVPARFSGSLLGGKAALTLLGAQPEDEAEYYCALWYSNLWVFGQGTKLTVLG | 0.51 nM | 0.00206 s⁻¹ | 4.04e+06 M⁻¹ s⁻¹ | 0.514 nM | 0.000915 s⁻¹ | 1.78e+06 M⁻¹ s⁻¹ | – | –
5 | hzsp34.25 (antibody, human IgG1, lambda, L234A L235A, V domains shown, IgG1 L234A L235A, lambda) VH: EVQLVESGGGLVQPGGSLKLSCAASGFTFNTYAMNWVRQASGKGLEWVARIRSKYNNYATYYADSVKDRFTISRDDSKSTLYLQMNSLKTEDTAVYYCARHGNFGQSYVSWFAYWGQGTTVTVSS VL: QAVVTQEPSLTVSPGGTVTLTCRSSTGAVTTSNYANWVQQKPGQAPRGLIGGTNKRAPGVPARFSGSLLGDKAALTLLGAQPEDEAEYYCALWYSNLWVFGQGTKLTVLG | 1.17 nM | 0.00273 s⁻¹ | 2.35e+06 M⁻¹ s⁻¹ | 0.857 nM | 0.000913 s⁻¹ | 1.07e+06 M⁻¹ s⁻¹ | – | –
6 | hzsp34.30 (antibody, human IgG1, kappa, L234A L235A, V domains shown, IgG1 L234A L235A, kappa) VH: EVQLVESGGGLVQPGGSLKLSCAASGFTFNTYAMNWVRQASGKGLEWVARIRSKYNNYATYYADSVKDRFTISRDDSKSTLYLQMNSLKTEDTAVYYCARHGNFGQSYVSWFAYWGQGTTVTVSS VL: EIVMTQSPATLSVSPGERATLSCRSSTGAVTTSNYANWYQQKPGQAPRLLIYGTNKRAPGIPARFSGSGSGTEFTLTISSLQSEDFAVYYCALWYSNLWVFGQGTKLTVLR | – | – | – | – | – | – | no binding | no binding
7 | hzsp34.15 (antibody, human IgG1, lambda, L234A L235A, V domains shown, IgG1 L234A L235A, lambda) VH: EVQLVESGGGLVQPGGSLKLSCAASGFTFNTYAMNWVRQASGKGLEWVARIRSKYNNYATYYADSVKDRFTISRDDSKSTLYLQMNSLKTEDTAVYYCARHGNFGQSYVSWFAYWGQGTTVTVSS VL: QAVVTQEPSLTVSPGGTVTLTCRSSTGAVTTSNYANWVQQKPGQAPRTLIGGTNKRAPGVPARFSGSLLGGKAALTLLGAQPEDEAEYYCALWYSNLWVFGQGTKLTVLG | 3.13 nM | 0.00202 s⁻¹ | 644000 M⁻¹ s⁻¹ | 1.75 nM | 0.00115 s⁻¹ | 658000 M⁻¹ s⁻¹ | – | –

Continued, values first:

Row | Kd [1] | koff [1] | kon [1] | Kd [2] | koff [2] | kon [2] | binding result [1] | binding result [2] | Binder
8 | 0.629 nM | 0.00208 s⁻¹ | 3.31e+06 M⁻¹ s⁻¹ | 0.67 nM | 0.00088 s⁻¹ | 1.31e+06 M⁻¹ s⁻¹ | – | – | hzsp34.18 (antibody, human IgG1, lambda, L234A L235A, V domains shown, IgG1 L234A L235A, lambda) VH: EVQLVESGGGLVQPGGSLKLSCAASGFTFNTYAMNWVRQASGKGLEWVGRIRSKYNNYATYYADSVKDRFTISRDDSKSTLYLQMNSLKTEDTAVYYCARHGNFGNSYVSWFAYWGQGTTVTVSS VL: QAVVTQEPSLTVSPGGTVTLTCRSSTGAVTTSNYANWVQQKPGQAPRGLIGGTNKRAPGVPARFSGSLLGGKAALTLLGAQPEDEAEYYCALWYSNLWVFGQGTKLTVLG
9 | 0.847 nM | 0.00275 s⁻¹ | 3.25e+06 M⁻¹ s⁻¹ | 0.756 nM | 0.0011 s⁻¹ | 1.46e+06 M⁻¹ s⁻¹ | – | – | hzsp34.20 (antibody, human IgG1, lambda, L234A L235A, V domains shown, IgG1 L234A L235A, lambda) VH: EVQLVESGGGLVQPGGSLKLSCAASGFTFNTYAMNWVRQASGKGLEWVARIRSKYNNYATYYADSVKDRFTISRDDSKSTLYLQMNSLKTEDTAVYYCARHGNFGQSYVSWFAYWGQGTTVTVSS VL: QAVVTQEPSLTVSPGGTVTLTCRSSTGAVTTSNYANWVQQKPGQAPRGLIGGTNKRAPGVPARFSGSLLGGKAALTLLGAQPEDEAEYYCALWYSNLWVFGQGTKLTVLG
10 | – | – | – | – | – | – | no binding | no binding | hzsp34.27 (antibody, human IgG1, kappa, L234A L235A, V domains shown, IgG1 L234A L235A, kappa) VH: EVQLVESGGGLVQPGGSLKLSCAASGFTFNTYAMNWVRQASGKGLEWVGRIRSKYNNYATYYADSVKDRFTISRDDSKNTLYLQMNSLKTEDTAVYYCARHGNFGNSYVSWFAYWGQGTTVTVSS VL: EIVMTQSPATLSVSPGERATLSCRSSTGAVTTSNYANWYQQKPGQAPRLLIYGTNKRAPGIPARFSGSGSGTEFTLTISSLQSEDFAVYYCALWYSNLWVFGQGTKLTVLR
11 | – | – | – | – | – | – | no binding | no binding | hzsp34.29 (antibody, human IgG1, kappa, L234A L235A, V domains shown, IgG1 L234A L235A, kappa) VH: EVQLVESGGGLVQPGGSLKLSCAASGFTFNTYAMNWVRQASGKGLEWVGRIRSKYNNYATYYADSVKDRFTISRDDSKSTLYLQMNSLKTEDTAVYYCARHGNFGQSYVSWFAYWGQGTTVTVSS VL: EIVMTQSPATLSVSPGERATLSCRSSTGAVTTSNYANWYQQKPGQAPRLLIYGTNKRAPGIPARFSGSGSGTEFTLTISSLQSEDFAVYYCALWYSNLWVFGQGTKLTVLR
12 | 0.613 nM | 0.00233 s⁻¹ | 3.8e+06 M⁻¹ s⁻¹ | 0.602 nM | 0.00099 s⁻¹ | 1.64e+06 M⁻¹ s⁻¹ | – | – | hzsp34.19 (antibody, human IgG1, lambda, L234A L235A, V domains shown, IgG1 L234A L235A, lambda) VH: EVQLVESGGGLVQPGGSLKLSCAASGFTFNTYAMNWVRQASGKGLEWVGRIRSKYNNYATYYADSVKDRFTISRDDSKSTLYLQMNSLKTEDTAVYYCARHGNFGQSYVSWFAYWGQGTTVTVSS VL: QAVVTQEPSLTVSPGGTVTLTCRSSTGAVTTSNYANWVQQKPGQAPRGLIGGTNKRAPGVPARFSGSLLGGKAALTLLGAQPEDEAEYYCALWYSNLWVFGQGTKLTVLG
13 | 0.605 nM | 0.00214 s⁻¹ | 3.54e+06 M⁻¹ s⁻¹ | 0.585 nM | 0.000886 s⁻¹ | 1.52e+06 M⁻¹ s⁻¹ | – | – | hzsp34.22 (antibody, human IgG1, lambda, L234A L235A, V domains shown, IgG1 L234A L235A, lambda) VH: EVQLVESGGGLVQPGGSLKLSCAASGFTFNTYAMNWVRQASGKGLEWVGRIRSKYNNYATYYADSVKDRFTISRDDSKNTLYLQMNSLKTEDTAVYYCARHGNFGNSYVSWFAYWGQGTTVTVSS VL: QAVVTQEPSLTVSPGGTVTLTCRSSTGAVTTSNYANWVQQKPGQAPRGLIGGTNKRAPGVPARFSGSLLGDKAALTLLGAQPEDEAEYYCALWYSNLWVFGQGTKLTVLG
